US20110313018

T1: His-tagged full-length recombinant LGN/GPSM2 (pET28a-LGN/GPSM2, E. coli)
T1 chain: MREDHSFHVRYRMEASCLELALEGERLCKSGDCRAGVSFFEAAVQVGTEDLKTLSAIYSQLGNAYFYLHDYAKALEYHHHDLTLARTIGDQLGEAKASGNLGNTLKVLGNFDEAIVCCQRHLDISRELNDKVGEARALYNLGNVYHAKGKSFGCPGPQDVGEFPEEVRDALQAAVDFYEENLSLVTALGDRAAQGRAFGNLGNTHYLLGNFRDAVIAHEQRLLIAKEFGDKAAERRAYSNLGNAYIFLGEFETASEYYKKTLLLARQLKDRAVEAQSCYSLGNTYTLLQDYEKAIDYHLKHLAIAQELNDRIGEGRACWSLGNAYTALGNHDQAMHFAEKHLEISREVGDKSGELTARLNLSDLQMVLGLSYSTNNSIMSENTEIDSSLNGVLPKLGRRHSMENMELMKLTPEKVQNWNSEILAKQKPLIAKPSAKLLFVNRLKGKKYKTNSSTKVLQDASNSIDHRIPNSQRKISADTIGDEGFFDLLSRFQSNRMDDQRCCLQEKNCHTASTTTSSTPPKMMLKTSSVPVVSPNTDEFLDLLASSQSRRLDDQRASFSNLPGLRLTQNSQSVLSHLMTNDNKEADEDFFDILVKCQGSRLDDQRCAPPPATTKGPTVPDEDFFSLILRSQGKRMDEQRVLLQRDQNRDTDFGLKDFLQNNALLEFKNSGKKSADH

T2: GST-LGN/GPSM2 wild type, full-length recombinant (pGEX 6P-2-LGN/GPSM2, E. coli)
T2 chain: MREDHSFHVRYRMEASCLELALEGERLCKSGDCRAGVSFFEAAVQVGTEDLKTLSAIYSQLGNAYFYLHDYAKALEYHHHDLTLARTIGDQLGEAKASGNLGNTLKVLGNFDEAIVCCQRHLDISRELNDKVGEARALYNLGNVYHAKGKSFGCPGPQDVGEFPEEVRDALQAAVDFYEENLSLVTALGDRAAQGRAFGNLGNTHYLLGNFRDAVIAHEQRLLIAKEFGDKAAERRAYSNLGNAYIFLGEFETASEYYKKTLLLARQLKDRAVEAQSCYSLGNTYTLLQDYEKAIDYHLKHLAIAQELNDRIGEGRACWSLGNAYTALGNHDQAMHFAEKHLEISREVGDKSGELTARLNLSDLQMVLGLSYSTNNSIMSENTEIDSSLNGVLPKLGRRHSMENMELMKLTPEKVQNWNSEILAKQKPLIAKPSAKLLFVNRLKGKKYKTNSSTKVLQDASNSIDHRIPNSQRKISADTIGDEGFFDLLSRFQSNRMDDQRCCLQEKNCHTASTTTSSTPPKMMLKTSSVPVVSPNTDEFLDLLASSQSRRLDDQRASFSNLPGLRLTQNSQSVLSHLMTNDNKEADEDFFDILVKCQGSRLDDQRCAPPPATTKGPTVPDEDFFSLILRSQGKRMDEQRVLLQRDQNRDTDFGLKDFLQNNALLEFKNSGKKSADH


Tests used:
[1] = biological target: T1, His-tagged full-length recombinant …
[2] = biological target: T2, GST-LGN/GPSM2 wild type, full-length …

Protein	in vitro kinase assay (western blot with anti-phosphorylated threonine antibody) [1]	in vitro kinase assay (autoradiography, [gamma-32P]-ATP) [2]	in vitro kinase assay with GST-LGN/GPSM2 WT and alanine substitutes (autoradiography) [2]	in vitro kinase assay (autoradiography, [gamma-32P]-ATP) (GST-LGN/GPSM2 S401A)
recombinant full-length PBK/TOPK (Invitrogen) (protein) MEGISNFKTPSKLSEKKKSVLCSTPTINIPASPIMQKLGFGTGVNVYLMKRSPRGLSHSPWAVKKINPICNDHYRSVYQKRLMDEAKILKSLHHPNIVGYRAFTEASDGSLCLAMEYGGEKSLNDLIEERYKASQDPFPAAIILKVALNMARGLKYLHQEKKLLHGDIKSSNVVIKGDFETIKICDVGVSLPLDENMTVTDPEACYIGTEPWKPKEAVEENGVITDKADIFAFGLTLWEMMTLSIPHINLSNDDDDEDKTFDESDFDDEAYYAALGTRPPINMEELDESYQKVIELFSVCTNEDPKDRPSAAHIVEALETDV	found phosphorylation of the LGN/GPSM2 protein by PBK/TOPK in vitro (FIG. 8B)	The autoradiography images also showed phosphorylation of the LGN/GPSM2 protein by PBK/TOPK (FIG. 8C)	PBK/TOPK, which was has been shown to phosphorylate LGN/GPSM2 in FIG. 8, did not phosphorylate these amino acids identified here (FIG. 10C)	
recombinant Aurora kinase A (SignalChem) (protein) MDRSKENCISGPVKATAPVGGPKRVLVTQQFPCQNPLPVNSGQAQRVLCPSNSSQRIPLQAQKLVSSHKPVQNQKQKQLQATSVPHPVSRPLNNTQKSKQPLPSAPENNPEEELASKQKNEESKKRQWALEDFEIGRPLGKGKFGNVYLAREKQSKFILALKVLFKAQLEKAGVEHQLRREVEIQSHLRHPNILRLYGYFHDATRVYLILEYAPLGTVYRELQKLSKFDEQRTATYITELANALSYCHSKRVIHRDIKPENLLLGSAGELKIADFGWSVHAPSSRRTTLCGTLDYLPPEMIEGRMHDEKVDLWSLGVLCYEFLVGKPPFEANTYQETYKRISRVEFTFPDFVTEGARDLISRLLKHNPSQRPMLREVLEHPWITANSSKPSNCQNKESASKQS		the phosphorylation of GST-LGN/GPSM2 by both Aurora kinase A and B		Substitution of serine 401 to alanine distinguished the phosphorylation of GST-LGN/GPSM2 by both Aurora kinase A and B
recombinant Aurora kinase B (SignalChem) (protein) MAQKENSYPWPYGRQTAPSGLSTLPQRVLRKEPVTPSALVLMSRSNVQPTAAPGQKVMENSSGTPDILTRHFTIDDFEIGRPLGKGKFGNVYLAREKKSHFIVALKVLFKSQIEKEGVEHQLRREIEIQAHLHHPNILRLYNYFYDRRRIYLILEYAPRGELYKELQKSCTFDEQRTATIMEELADALMYCHGKKVIHRDIKPENLLLGLKGELKIADFGWSVHAPSLRRKTMCGTLDYLPPEMIEGRMHNEKVDLWCIGVLCYELLVGNPPFESASHNETYRRIVKVDLKFPASVPMGAQDLISKLLRHNPSERLPLAQVSAHPWVRANSRRVLPPSALQSVA		the phosphorylation of GST-LGN/GPSM2 by both Aurora kinase A and B		Substitution of serine 401 to alanine distinguished the phosphorylation of GST-LGN/GPSM2 by both Aurora kinase A and B
